Tests used:
[1] = biological target: T1, VEGFR-2/NP-1 co-receptor complex (cells co-expressing hVEGFR-2 and hNP-1) (human, UniProt P35968 20-1356; O14786 22-923); assay: 125I-VEGF165 affinity labeling of HUVEC, VEGFR-2 immunoprecipitation, 100 µM peptide (FIG. 10A)
T1 construct: whole, on cells; All numbers printed for cells co-expressing both receptors are put on this molecule; also called R2 + NP1 Cells; VEGFR-2/NP-1 complex
Experimental: (§1) The crosslinker is removed with a single, ice cold, large volume wash (15 ml DPBS, Gibco). The cells are then lysed using RIP buffer (20 mM Tris HCl, pH 7.4; 100 mM NaCl; 1 mM EDTA; 10 mM NaI; 0.5% IGEPAL CA-630; 0.5% Na-deoxycholate; 1% BSA; all from Sigma). The lysate is then transferred to 1.5 ml conical tubes and centrifuged at 13,000×g to pellet the cellular debris. […] The precipitation tube is then incubated overnight at 4° C. on a nurator. The following morning the beads are washed three times in TNEN buffer (20 mM Tris-HCl pH 7.4; 100 mM NaCl; and 0.5% IGEPAL CA-630, all from Sigma), and heated for two minutes at 100° C. in 25 μl of 1×sample loading dye (5′-3′). The samples are then centrifuged to separate the beads from the sample buffer, and 20 μl of the sample buffer is loaded onto 6% SDS-PAGE gels (Novex). The gels are run at 35 mA for approximately 70 minutes, and then equilibrated in a drying buffer (10% acetic acid; 10% methanol, 80% H₂O) for 15 minutes and dried on a gel drier. The dried gels are then exposed to a phosphor screen overnight and developed using a Storm system (Molecular Dynamics).
(§2) Further amino terminal deletions were conducted.

[2] = biological target: T1, VEGFR-2/NP-1 co-receptor complex (cells …); assay: 125I-VEGF165 affinity labeling of HUVEC, VEGFR-2 immunoprecipitation, 100 µM peptide (FIG. 10B)
Experimental: as §1, §2

[3] = biological target: T2, human vascular endothelial growth factor receptor-2 (hVEGFR-2) (human, UniProt P35968 20-1356); assay: 125I-VEGF165 competition, whole COS-1 cells
T2 construct: whole, on cells; also called flk-1; FLK-1
Experimental: Cells are plated the day before experimentation at 200,000 cells per well in twelve well tissue culture plates (VWR) in 1 ml of growth medium specific for each cell type. On the day of experimentation, the cells were pre-equilibrated at 4° C. for 30 to 60 minutes in binding buffer (0.2% BSA, Sigma; 25 mM Hepes, Gibco; MEM, Gibco). […] The binding reaction is allowed to reach equilibrium for four hours at 4° C. with gentle agitation.
Unbound ligand is then removed by quickly washing three times with 5 ml ice cold BSA-free binding buffer (MEM, Gibco, 25 mM Hepes, Gibco). Cells are lysed by the addition of 250 μl of RIPS Buffer (previously described), and the lysed cells are transferred to 12×75 mm test tubes and counted using a gamma counter. Generation of competition curves and IC₅₀ values are performed using the Prism software package (Graphpad Software Inc., San Diego, Calif.).

[4] = biological target: T1, VEGFR-2/NP-1 co-receptor complex (cells …); assay: 125I-VEGF165 competition on COS-1 cells and affinity labeling of HUVEC

T1 sequence (P35968 20-1356, chain 1 of 2): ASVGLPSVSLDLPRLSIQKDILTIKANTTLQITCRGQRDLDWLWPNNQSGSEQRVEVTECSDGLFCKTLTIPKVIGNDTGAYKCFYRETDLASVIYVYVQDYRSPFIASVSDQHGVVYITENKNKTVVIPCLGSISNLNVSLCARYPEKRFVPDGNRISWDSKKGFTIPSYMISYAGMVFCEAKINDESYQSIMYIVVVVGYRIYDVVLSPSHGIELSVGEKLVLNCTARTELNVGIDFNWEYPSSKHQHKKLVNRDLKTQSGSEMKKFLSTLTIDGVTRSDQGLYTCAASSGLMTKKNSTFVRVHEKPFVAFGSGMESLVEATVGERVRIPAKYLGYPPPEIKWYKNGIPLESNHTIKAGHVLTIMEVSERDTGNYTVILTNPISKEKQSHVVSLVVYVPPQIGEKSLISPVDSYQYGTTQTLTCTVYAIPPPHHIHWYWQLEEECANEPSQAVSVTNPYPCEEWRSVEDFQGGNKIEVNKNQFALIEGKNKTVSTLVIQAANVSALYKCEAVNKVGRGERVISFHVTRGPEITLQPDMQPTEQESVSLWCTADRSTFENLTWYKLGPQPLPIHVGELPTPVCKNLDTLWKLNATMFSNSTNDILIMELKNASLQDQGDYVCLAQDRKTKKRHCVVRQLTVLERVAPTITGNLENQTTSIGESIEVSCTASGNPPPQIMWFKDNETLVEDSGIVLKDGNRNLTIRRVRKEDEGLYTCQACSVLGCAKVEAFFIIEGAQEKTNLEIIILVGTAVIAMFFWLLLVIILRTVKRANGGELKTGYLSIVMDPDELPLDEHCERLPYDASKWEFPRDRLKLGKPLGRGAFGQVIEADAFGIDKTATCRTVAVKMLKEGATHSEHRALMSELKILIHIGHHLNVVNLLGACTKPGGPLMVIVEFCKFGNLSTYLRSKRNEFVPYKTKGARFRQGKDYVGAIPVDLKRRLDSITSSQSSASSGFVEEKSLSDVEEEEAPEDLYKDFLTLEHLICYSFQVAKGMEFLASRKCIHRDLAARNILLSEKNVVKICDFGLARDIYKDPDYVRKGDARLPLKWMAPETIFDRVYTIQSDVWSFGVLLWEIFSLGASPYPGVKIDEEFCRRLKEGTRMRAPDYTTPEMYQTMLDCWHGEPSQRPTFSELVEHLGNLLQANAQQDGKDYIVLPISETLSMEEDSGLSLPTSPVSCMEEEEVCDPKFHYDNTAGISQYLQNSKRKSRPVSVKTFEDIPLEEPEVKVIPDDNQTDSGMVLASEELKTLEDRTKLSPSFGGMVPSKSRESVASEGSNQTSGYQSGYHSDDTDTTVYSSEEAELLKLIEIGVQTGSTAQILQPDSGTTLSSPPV
T1 sequence (O14786 22-923, chain 2 of 2): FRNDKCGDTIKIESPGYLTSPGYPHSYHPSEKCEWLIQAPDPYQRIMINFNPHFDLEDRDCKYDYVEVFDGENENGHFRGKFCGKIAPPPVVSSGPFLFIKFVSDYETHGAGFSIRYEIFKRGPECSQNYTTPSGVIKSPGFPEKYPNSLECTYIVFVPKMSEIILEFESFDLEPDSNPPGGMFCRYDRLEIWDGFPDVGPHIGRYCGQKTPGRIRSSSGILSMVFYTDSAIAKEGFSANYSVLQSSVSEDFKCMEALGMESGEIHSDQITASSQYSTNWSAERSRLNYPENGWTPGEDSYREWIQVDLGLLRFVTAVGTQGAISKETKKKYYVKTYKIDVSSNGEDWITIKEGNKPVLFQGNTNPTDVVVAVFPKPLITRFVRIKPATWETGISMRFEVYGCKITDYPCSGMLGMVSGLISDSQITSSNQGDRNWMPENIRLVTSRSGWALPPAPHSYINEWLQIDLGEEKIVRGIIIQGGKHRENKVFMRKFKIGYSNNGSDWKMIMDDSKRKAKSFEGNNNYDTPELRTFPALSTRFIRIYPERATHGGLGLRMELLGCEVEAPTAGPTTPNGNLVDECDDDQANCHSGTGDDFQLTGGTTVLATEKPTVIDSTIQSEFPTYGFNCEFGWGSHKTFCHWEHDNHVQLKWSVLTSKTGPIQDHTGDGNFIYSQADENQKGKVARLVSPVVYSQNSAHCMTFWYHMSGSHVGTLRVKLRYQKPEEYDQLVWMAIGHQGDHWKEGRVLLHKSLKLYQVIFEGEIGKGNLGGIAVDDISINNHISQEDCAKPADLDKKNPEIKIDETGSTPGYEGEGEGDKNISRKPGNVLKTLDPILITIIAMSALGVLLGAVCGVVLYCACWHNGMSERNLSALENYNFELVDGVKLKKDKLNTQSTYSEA
T2 sequence (P35968 20-1356): as the sequence (P35968 20-1356, chain 1 of 2) above

## RRREKQRPCDKPRR (also called PGV8-8N) [P6V8-8N]
[1]
  binding result: binds

## KGRGKRRREKQRPSDKPR [P6V8-3NCS-1C]
[2]
  binding result: binds

## RREKQRPCDKPRR [P6V8-9N]
[3]
  binding result: no binding
[4]
  binding result: binds

Reference: patent publication US20030186868A1 (Regeneron, published 2003)
